Experimental data as given in patent US20260166139A1.
Values joined by “and” are separate entries in the source; they are usually repeats but may differ in a detail not shown here. Identical values can stand only once.

Legend:
[1] = biological target: CTLA4-mFc; test: competitive ELISA, CTLA4-mFc coated, competitor B7/2-His; antibody 1.5 µg/ml diluted 1:243
[2] = biological target: CTLA4-mFc; test: competitive ELISA, CTLA4-mFc coated, competitor B7/2-His; antibody 1 µg/ml diluted 1:243
[3] = biological target: CTLA4-mFc; test: competitive ELISA, CTLA4-mFc coated, competitor B7/2-His; antibody 0 (no antibody)
[4] = biological target: human CTLA4 (human) (UniProt P16410); test: ELISA, coat human CTLA4 0.5 ug/ml; antibody 0 (blank)
[5] = biological target: CTLA4-mFc; test: competitive ELISA, B7/1-hFc coated (competitor), CTLA4-mFc added; antibody 5 µg/ml diluted 1:81
[6] = biological target: human CTLA4 (human) (UniProt P16410); test: ELISA, coat human CTLA4 0.5 ug/ml; antibody 1:9 (start 1 ug/ml)
[7] = biological target: human CTLA4 (human) (UniProt P16410); test: ELISA, coat human CTLA4 0.5 ug/ml; antibody 1:3 (start 1 ug/ml)
[8] = biological target: CTLA4-mFc; test: competitive ELISA, CTLA4-mFc coated, competitor B7/2-His; antibody 0 (no antibody); remark: listed apart in the source
[9] = biological target: human CTLA4 (human) (UniProt P16410); test: ELISA, coat human CTLA4 0.5 ug/ml; antibody 1:27 (start 1 ug/ml)
[10] = biological target: CTLA4-mFc; test: competitive ELISA, CTLA4-mFc coated, competitor B7/2-His; antibody 1 µg/ml diluted 1:3
[11] = biological target: CTLA4-mFc; test: competitive ELISA, CTLA4-mFc coated, competitor B7/2-His; antibody 1.5 µg/ml
[12] = biological target: CTLA4-mFc; test: competition ELISA, coat B7/1-hFc 0.2 ug/ml (competitor), CTLA4-mFc 0.3 ug/ml detected; antibody 1:81 (start 3 ug/ml)
[13] = biological target: CTLA4-mFc; test: competitive ELISA, B7/1-hFc coated (competitor), CTLA4-mFc added; antibody 5 µg/ml diluted 1:243
[14] = biological target: CTLA4-mFc; test: competitive ELISA, B7/1-hFc coated (competitor), CTLA4-mFc added; antibody 5 µg/ml
[15] = biological target: CTLA4-mFc; test: competition ELISA, coat B7/1-hFc 0.2 ug/ml (competitor), CTLA4-mFc 0.3 ug/ml detected; antibody 1:243 (start 3 ug/ml)
[16] = biological target: human CTLA4 (human) (UniProt P16410); test: ELISA on coated CTLA4, source Human (row of 8D2H3L3)
[17] = biological target: human CTLA4 (human) (UniProt P16410); test: ELISA, coat CTLA4 0.5 ug/ml; antibody 1:9 (start 1 ug/ml)
[18] = biological target: monkey CTLA4-hFc (monkey); test: ELISA, coat monkey CTLA4-hFc 0.25 ug/ml; antibody 0 (blank)
[19] = biological target: CTLA4-mFc; test: competitive ELISA, B7/1-hFc coated (competitor), CTLA4-mFc added; antibody 0 (no antibody)
[20] = biological target: CTLA4-mFc; test: competitive ELISA, competitor B7-1; control run with 8D2H2L15
[21] = biological target: CTLA4-mFc; test: competitive ELISA, competitor B7-2; control run with 8D2H2L15
[22] = biological target: human CTLA4 (human) (UniProt P16410); test: ELISA on coated CTLA4, source Human (row of 8D2H2L2)
[23] = biological target: human CTLA4 (human) (UniProt P16410); test: ELISA, coat human CTLA4 0.5 ug/ml; antibody 1:3 (start 1 ug/ml); remark: listed apart in the source
[24] = biological target: CTLA4-mFc; test: competition ELISA, coat B7/1-hFc 0.2 ug/ml (competitor), CTLA4-mFc 0.3 ug/ml detected; antibody 1:3 (start 3 ug/ml)
[25] = biological target: CTLA4-mFc; test: competitive ELISA, B7/1-hFc coated (competitor), CTLA4-mFc added; antibody 5 µg/ml diluted 1:729
[26] = biological target: human CTLA4 (human) (UniProt P16410); test: ELISA, coat human CTLA4 0.5 ug/ml; antibody 1:243 (start 1 ug/ml)

Sequence of human CTLA4 (human) (P16410 36-161 limits assumed): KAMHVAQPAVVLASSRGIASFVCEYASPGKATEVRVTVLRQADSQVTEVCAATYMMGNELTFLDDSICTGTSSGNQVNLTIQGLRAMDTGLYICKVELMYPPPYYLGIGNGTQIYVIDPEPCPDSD
Sequence of control antibody 11.2.1 (VH): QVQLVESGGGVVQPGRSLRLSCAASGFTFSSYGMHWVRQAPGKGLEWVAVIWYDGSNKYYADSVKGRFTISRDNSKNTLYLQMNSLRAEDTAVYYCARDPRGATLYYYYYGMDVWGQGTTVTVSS
Sequence of control antibody 11.2.1 (VL): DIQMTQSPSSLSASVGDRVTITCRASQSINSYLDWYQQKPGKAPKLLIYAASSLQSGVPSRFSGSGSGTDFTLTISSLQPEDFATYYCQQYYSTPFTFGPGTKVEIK
Sequence of CTLA4-mFc (chain, as listed by the source limits assumed): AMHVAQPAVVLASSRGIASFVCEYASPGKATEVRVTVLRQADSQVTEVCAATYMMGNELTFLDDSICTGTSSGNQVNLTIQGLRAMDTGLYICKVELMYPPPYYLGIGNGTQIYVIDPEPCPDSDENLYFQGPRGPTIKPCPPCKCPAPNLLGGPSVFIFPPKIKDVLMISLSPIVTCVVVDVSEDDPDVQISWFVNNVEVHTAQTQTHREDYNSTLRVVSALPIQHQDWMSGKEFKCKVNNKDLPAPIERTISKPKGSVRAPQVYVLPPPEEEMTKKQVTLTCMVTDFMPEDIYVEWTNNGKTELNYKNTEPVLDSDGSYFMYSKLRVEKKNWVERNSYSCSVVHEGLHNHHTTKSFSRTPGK

Substance: control antibody 11.2.1
- absorbance at 450 nm [1]: 0.93 and 0.754
- absorbance at 450 nm [2]: 0.84 and 0.85
- absorbance at 450 nm [3]: 0.91 and 0.8
- absorbance at 450 nm [4]: 0.072 and 0.064
- absorbance at 450 nm [5]: 0.698 and 0.66
- absorbance at 450 nm [6]: 3.21 and 3.19
- absorbance at 450 nm [7]: 3.5 and 3.48
- absorbance at 450 nm [8]: 1.19 and 1.1
- absorbance at 450 nm [9]: 0.893 and 0.682
- absorbance at 450 nm [10]: 0.05
- absorbance at 450 nm [11]: 0.372 and 0.494
- absorbance at 450 nm [12]: 0.65 and 0.613
- absorbance at 450 nm [13]: 0.755 and 0.9
- absorbance at 450 nm [14]: 0.08 and 0.089
- absorbance at 450 nm [15]: 0.9 and 0.52
- EC50 [16]: 0.09 nM
- absorbance at 450 nm [17]: 2.69 and 2.44
- absorbance at 450 nm [18]: 0.048 and 0.051
- absorbance at 450 nm [19]: 0.683 and 0.735
- EC50 [20]: 2.61 nM
- EC50 [21]: 0.349 nM
- EC50 [22]: 0.09 nM
- absorbance at 450 nm [23]: 1.82 and 2.05
- absorbance at 450 nm [24]: 0.119 and 0.133
- absorbance at 450 nm [25]: 0.909 and 0.793
- absorbance at 450 nm [26]: 0.536 and 0.552
